Patent US8889621B2, “Inhibiting binding of FGF23 to the binary FGFR-Klotho complex for the treatment of hypophosphatemia” (New York University, priority 2009, dated 2014)

T1: binary FGFR1c-Klotho complex (UniProt O35082+P11362)
T1 construct: The ectodomain of murine Klotho (A35 to K982) was purified from culture media; FLAG (C); made in house; host or cells: E. coli (FGFR1c, FGF23); HEK293 (Klotho ectodomain)
T1 sequence (P11362 142-365): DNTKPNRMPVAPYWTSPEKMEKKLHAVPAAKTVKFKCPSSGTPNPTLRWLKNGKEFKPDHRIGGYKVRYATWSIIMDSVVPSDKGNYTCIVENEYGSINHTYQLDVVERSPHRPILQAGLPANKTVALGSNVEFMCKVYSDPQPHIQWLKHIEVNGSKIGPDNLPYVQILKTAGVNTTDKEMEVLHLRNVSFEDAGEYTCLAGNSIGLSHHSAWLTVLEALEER
T1 sequence (O35082 35-982): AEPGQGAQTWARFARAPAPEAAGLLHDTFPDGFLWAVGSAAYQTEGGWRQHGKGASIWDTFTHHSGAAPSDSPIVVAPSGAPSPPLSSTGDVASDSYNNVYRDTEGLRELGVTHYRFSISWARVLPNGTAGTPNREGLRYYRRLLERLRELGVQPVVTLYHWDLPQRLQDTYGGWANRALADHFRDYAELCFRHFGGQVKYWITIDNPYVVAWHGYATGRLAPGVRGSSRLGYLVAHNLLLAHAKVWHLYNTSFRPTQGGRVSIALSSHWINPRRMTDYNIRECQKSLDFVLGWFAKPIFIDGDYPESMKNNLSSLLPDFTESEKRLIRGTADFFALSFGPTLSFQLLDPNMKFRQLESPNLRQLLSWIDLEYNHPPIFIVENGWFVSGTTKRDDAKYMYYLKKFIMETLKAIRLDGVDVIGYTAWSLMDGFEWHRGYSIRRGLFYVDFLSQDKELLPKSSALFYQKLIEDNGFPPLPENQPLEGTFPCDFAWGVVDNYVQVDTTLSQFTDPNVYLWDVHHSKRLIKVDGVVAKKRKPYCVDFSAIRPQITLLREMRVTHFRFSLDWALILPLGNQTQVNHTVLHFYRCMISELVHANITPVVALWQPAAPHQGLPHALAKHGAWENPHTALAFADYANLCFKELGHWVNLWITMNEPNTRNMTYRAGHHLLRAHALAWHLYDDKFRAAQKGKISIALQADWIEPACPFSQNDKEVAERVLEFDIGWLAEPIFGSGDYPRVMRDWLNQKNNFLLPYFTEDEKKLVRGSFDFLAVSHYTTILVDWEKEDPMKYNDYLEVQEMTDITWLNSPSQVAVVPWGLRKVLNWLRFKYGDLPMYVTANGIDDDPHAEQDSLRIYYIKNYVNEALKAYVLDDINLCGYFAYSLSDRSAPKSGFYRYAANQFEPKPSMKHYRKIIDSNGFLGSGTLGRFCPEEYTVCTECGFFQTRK


Target: T1, binary FGFR1c-Klotho complex
Experiment: Reverse SPR competition: FGFR1c-Klotho binding to immobilized FGF23^180-251
Design: species or system human FGFR1c, murine Klotho
Conditions: reverse SPR format
Procedure: A variety of interaction or binding assays can be used to determine that an agent specifically binds the binary FGFR-Klotho complex, such as the SPR interaction analysis described below. One aspect of the present invention utilizes SPR analysis of FGF23 protein/peptide binding to the binary FGFR-Klotho complex. The SPR analysis involved FGF23 protein/peptide immobilization by amine coupling on flow channels of a chip. Proteins were injected over the chip at a flow rate of 50 μl min^−1, and at the end of each protein injection (180 s), HBS-EP buffer (10 mM HEPES-NaOH, pH 7.4, 150 mM NaCl, 3 mM EDTA, 0.005% (v/v) polysorbate 20; 50 μl min^−1) was flowed over the chip to monitor dissociation for 180 s. The chip surface was then regenerated by injecting 50 μl of 2.0 M NaCl in 10 mM sodium acetate, pH 4.5. […] For each protein injection over a FGF23 protein/peptide chip, the nonspecific responses from the FHF1B control flow channel were subtracted from the responses recorded for the flow channel onto which FGF23 protein/peptide was immobilized. […] As a control, competition of FGF23 C-terminal tail peptide in solution with immobilized FGF23 C-terminal tail peptide for binding to the binary FGFR1c-Klotho complex was analyzed. […]

Molecule	inhibition of FGFR1c-Klotho binding to immobilized FGF23^180-251
FGF23^28-251: human FGF23 (A28 to I251), bioactive full-length ligand expressed in E. coli (protein, listed as Homo sapiens) ASPLLGSSWGGLIHLYTATARNSYHLQIHKNGHVDGAPHQTIYSALMIRSEDAGFVVITGVMSRRYLCMDFRGNIFGSHYFDPENCRFQHQTLENGYDVYHSPQYHFLVSLGRAKRAFLPGMNPPPYSQFLSRRNEIPLIHFNTPIPRRHTRSAEDDSERDPLNVLKPRARMTPAPASCSQELPSAEDNSPMASDPLGVVRGGRVNTHAGGTGPEGCRPFAKFI	inhibition
FGF23^180-251: 72-amino acid C-terminal tail of human FGF23 (S180 to I251), expressed in E. coli (protein, listed as Homo sapiens) SAEDDSERDPLNVLKPRARMTPAPASCSQELPSAEDNSPMASDPLGVVRGGRVNTHAGGTGPEGCRPFAKFI	inhibition
